We go through one substance from article PMC3927142.

Among the targets are E6.2.10 (human) (UniProt P02751); EI1.4.1 (human) (UniProt P02751); EI2.4.6 (human) (UniProt P02751).
What all share (experiment): flow cytometry on cells

What is called Kd is the concentration at which binding is half-saturated. A high value points to weaker binding. “EGFR mutant 404SG (from UniProt P00533 25-1210) (receptor)”: the Kd in the test with E6.2.10 (human) was 0.96 nM; in the test with EI1.4.1 (human) it was 0.85 nM; with EI2.4.6 (human), 2.9 nM.
